Test results published in US20230340089A1 (CITY OF HOPE, published 2023).

T1: Structural Maintenance of Chromosome-1A (SMC1A) (human, UniProt Q14683 1-1233)
T1 construct: whole, on cells; Endogenous antigen; It is on live or fixed cells in flow cytometry, LI-COR cell surface assay, ICC and immunogold EM, and in cell lysates in Western blot and immunoprecipitation; No recombinant SMC1A was used; also called SMC1A antigen; surface SMC1
T1 sequence (looked up): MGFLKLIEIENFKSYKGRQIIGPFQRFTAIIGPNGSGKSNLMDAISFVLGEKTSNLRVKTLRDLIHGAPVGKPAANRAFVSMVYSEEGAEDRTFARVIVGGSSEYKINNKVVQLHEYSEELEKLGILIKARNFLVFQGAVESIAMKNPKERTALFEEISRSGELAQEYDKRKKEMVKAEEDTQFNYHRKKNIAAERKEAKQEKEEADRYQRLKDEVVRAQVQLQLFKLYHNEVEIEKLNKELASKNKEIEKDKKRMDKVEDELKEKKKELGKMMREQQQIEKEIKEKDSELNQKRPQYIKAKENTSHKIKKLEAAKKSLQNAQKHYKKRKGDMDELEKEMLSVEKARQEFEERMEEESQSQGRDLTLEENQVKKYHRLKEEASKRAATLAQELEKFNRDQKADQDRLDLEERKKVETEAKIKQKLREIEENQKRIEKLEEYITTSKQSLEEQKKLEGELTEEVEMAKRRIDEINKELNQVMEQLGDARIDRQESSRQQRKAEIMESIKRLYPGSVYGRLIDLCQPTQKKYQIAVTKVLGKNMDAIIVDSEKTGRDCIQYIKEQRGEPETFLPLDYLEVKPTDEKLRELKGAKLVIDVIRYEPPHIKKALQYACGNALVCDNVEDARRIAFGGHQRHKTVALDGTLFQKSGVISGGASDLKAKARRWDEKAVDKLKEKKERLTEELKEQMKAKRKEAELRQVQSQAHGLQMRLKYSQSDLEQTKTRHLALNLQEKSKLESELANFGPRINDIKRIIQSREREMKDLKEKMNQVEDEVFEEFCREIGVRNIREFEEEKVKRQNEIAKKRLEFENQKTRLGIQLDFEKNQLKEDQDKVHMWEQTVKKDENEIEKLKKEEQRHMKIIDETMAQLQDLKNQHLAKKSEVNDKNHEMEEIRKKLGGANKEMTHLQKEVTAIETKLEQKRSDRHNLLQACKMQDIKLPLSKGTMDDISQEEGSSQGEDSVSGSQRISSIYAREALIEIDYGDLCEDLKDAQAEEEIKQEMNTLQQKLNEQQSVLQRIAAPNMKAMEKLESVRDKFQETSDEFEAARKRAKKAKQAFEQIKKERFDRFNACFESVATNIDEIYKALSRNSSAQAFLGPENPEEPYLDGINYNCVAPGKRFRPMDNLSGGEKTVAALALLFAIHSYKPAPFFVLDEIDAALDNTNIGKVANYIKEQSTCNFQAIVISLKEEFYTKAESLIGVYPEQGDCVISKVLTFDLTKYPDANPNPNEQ

B1: SMC1-Beta (antibody, V domains shown)
VH: EVKLQESGPELVKSGASVKIPCKASGYTFTDFNIEWVKQNRGKSLEWIGDINPSNGETIYNKKFKGKATLTVDKSSTTAFMELRSLTSEDTAVYYCARDHYYGYDYDAMDYWGQGTSVTVSS
VL: QIVLTQSPAIMSASPGEKVTMTCSASSSIGYMHWYQQKPGTSPKRWIYDRSKLASGVPARFSGSGSGTSFSLTISSMEAEDAATYYCHQRSRYPYTFGGGTKLEIKR
B2: meditope-enabled SMC1A4 (antibody, human IgG1, kappa, V domains shown)
VH: EVQLVESGGGLVQPGGSLRLSCAASGFNIKDPYMHWVRQSPGKGLEWIGWITPANGNTKYADSVKGRATISADTSKNTAYLQMNSLRAEDTAIYFCARSGDAYYWAWFAYWGQGTLVTVSS
VL: DVQMTQSPILLSASVGDRVTITCRSSQSIVHSNGNTYLEWYQQRTNGSPRLLIYKVSNRFSGVPSRFSGSGSGTDFTLTISSLQPEDIADYYCFQGPLYTFGAGTKVEIKR
notes: It was detected with anti-human secondary antibodies; also called SMC1A4-me; SMC1A4-ME
B3: SMC1A1 (antibody, V domains shown)
VH: VTLKESGPGILQPSQTLSLTCSFSGFSLSTSGMGVGWIRQPSGKGLEWLAHIWWDDDQYSNTALRSGLTISKDTSKNQVFLKIASVDTSDTATYYCARVTTDAVDYWGQGTSVTVSS
VL: QIVLTQSPAIMSISPGERVTMTCSASSGLTYMYWYQQKPGSSPRLLIYDTSNLASGVPVRFSGSGSGTSYSLTISRMEAEDAATYYCQQWKSFPPTFGGGTKLEIKR
notes: also called SMC1A-ALPHA1
B4: chimeric SMC1A1 mAb (antibody, V domains shown)
VH: B3 VH
VL: B3 VL
notes: also called SMC1A-ALPHA1
B5: SMC1A4-chimeric antibody (antibody, V domains shown)
VH: VQLQQSGAELVKPGASVKLSCTASGFNIKDPYMHWVKQRPEQGLEWIGWITPANGNTKYDPKFQAKATITADTYSNTAYLQFSSLTSEDTAVYFCARSGDAYYWAWFAYWGQGTLVTVSA
VL: DVLMTQTPLSLTVSLGDQASISCRSSQSIVHSNGNTYLEWYLQKPGQSPKLLIYKVSNRFSGVSDRFSGSGSGTDFTLKISRVEAEDLGVYYCFQGPLYTFGGGTKLEIKR
notes: Chimeric IgG detected with anti-human secondary antibodies; also called chimeric SMC1A4; SMC1A4 chimeric monoclonal antibody

How the values were obtained:
[1] = target: T1, Structural Maintenance of Chromosome-1A …; assay: LI-COR based cell surface assay on tumor cells
[2] = target: T1, Structural Maintenance of Chromosome-1A …; assay: Western blot of HCT116, HT29 and MDA-MB-231 lysates, 1 ug/ml
Procedure: For each Westem blot, the cell lysates used as samples were from HCT116 cells (1), HT29 cells (2) and MDA-MB-231 cells (3). […] The secondary antibody used was an anti-human-HRP (dilution 1:3000) and incubated for 1 hour at room temperature with the overnight incubations.

[3] = target: T1, Structural Maintenance of Chromosome-1A …; assay: immunoprecipitation, then Western blot with the Bethyl anti-human SMC1A polyclonal antibody

| Binder | binding result [1] | binding result [3] | further results |
| --- | --- | --- | --- |
| B1 | binds |  |  |
| B2 |  |  | binding result [2]: binds |
| B3 | binds |  |  |
| B4 |  | binds |  |
| B5 |  | binds |  |
